Measured values published in US20180185504A1 (Regeneron, published 2018).
Blank lines part the entries; values can stand above or below the binder they belong to.

Assays:
[1] = molecular target: T1, human PRLR on cells (endogenous on T47D, T47D#11, MCF7); introduced in HEK293/hPRLR/STAT5-Luc, 293/hPRLR, … (human, UniProt P16471 25-622); assay: imaging of alexa488 intensity on T47D cells
T1 construct: no tag is stated for these lines; also called prolactin receptor
T1 sequence: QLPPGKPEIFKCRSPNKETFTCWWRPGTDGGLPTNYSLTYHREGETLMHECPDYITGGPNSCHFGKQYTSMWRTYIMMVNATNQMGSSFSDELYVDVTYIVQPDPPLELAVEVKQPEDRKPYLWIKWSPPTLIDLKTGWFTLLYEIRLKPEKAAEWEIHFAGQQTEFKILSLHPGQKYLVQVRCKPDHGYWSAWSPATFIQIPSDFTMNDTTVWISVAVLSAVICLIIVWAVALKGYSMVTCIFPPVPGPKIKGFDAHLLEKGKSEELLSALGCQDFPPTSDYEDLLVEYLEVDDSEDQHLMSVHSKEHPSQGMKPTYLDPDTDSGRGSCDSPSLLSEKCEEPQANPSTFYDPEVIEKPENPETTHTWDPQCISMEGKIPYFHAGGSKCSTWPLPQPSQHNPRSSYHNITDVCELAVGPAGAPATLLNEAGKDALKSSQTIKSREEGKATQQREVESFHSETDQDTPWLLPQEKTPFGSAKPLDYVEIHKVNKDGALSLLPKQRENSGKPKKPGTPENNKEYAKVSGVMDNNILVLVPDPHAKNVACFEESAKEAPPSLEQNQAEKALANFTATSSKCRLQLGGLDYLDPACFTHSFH
Experimental: Briefly, 20,000 T47D cells were seeded in collagen coated 96 well plates. […] Cells were then incubated with alexa488 conjugated anti-hFc Fab secondary antibodies for 30 minutes on ice followed by two additional PBS washes. Antibodies were allowed to internalize for 1 h at 37° C. in internalization buffer (PBS+2% FBS) or remained at 4° C. Cells were fixed in 4% formaldehyde, nuclei were stained with DRAQ5 (Cell signaling), and images were acquired on the ImageXpress micro XL (Molecular Devices). Whole cell alexa488 intensity at 37° C. (Binding) and the alexa488 intensity in the intracellular vesicles at 37° C. (Internalization) were determined via Columbus image analysis software (PerkinElmer).

[2] = molecular target: T2, mfPRLR.mmh (soluble monomeric macaca fascicularis PRLR) (macaca fascicularis); assay: SPR (Biacore), antibody capture, 37 C
T2 construct: soluble monomeric PRLR protein; also called macaca fascicularis (mf) PRLR.mmh; monkey PRLR
T2 chain: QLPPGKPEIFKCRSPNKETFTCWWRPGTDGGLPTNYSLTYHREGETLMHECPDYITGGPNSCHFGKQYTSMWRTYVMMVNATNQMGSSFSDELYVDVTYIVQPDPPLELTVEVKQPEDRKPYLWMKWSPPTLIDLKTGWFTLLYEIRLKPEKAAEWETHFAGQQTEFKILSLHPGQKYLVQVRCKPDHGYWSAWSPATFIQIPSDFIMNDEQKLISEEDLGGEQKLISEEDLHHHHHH
Experimental: (§1) Measurements were conducted on a T200 Biacore instrument. Kinetic association (kₐ) and dissociation (kd) rate constants were determined by processing and fitting the data to a 1:1 binding model using Scrubber 2.0 curve fitting software.

[3] = molecular target: T3, hPRLR.mFc (soluble dimeric human PRLR) (human); assay: SPR (Biacore), antibody capture, 37 C
T3 construct: dimeric PRLR construct
T3 chain: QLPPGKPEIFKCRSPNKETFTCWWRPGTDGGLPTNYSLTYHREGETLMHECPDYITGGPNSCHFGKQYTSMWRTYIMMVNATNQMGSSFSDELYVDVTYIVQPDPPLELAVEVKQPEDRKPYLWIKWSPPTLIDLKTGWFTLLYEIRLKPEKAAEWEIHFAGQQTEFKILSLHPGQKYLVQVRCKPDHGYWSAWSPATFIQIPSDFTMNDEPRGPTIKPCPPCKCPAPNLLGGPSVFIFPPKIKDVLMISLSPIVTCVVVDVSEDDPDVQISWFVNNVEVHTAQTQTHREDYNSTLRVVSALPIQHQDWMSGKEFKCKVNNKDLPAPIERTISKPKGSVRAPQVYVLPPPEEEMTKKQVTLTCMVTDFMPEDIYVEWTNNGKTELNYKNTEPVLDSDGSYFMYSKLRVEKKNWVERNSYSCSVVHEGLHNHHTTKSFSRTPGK
Experimental: as §1

[4] = molecular target: T4, human PRLR construct with an HA tag on HEK293/hPRLR cells (human, UniProt P16471 25-622); assay: FACS on HEK293/hPRLR cells
T4 sequence: T1 sequence

% Total Binding relative to Control I [1]: 168%
Kd [2]: 1.52 nM
T 1/2 [2]: 0.433 h
koff [2]: 0.00045 s⁻¹
kon [2]: 297000 M⁻¹ s⁻¹
Kd [3]: 0.256 nM
T 1/2 [3]: 1.65 h
koff [3]: 0.000117 s⁻¹
kon [3]: 456000 M⁻¹ s⁻¹
FACS Cell Binding (Fold Above Background) [4]: 37 fold
B1: H1H6785P (antibody, human IgG1, V domains shown)
VH: EVQLVESGGGLVQPGGSLRLSCAASGFTFSSYEMNWVRQAPGKGLEWISYISSRGGTIYYADSIKGRFTIYRDNARNSLYLQMNSLRAEDTAIYYCARLSGVDIFDIWGQGTMVTVSS
VL: DIQMTQSPSSLSASVGDRVTITCRASQGISNYLAWYQQKPGKVPKLLIYFASTLQSGVPSRFSGGGSGTDFTLTISSLQPEDVATYYCQRYNSAPLTFGGGTKVEIK
notes: human IgG1 Fc (H1H)

% Total Binding relative to Control I [1]: 226%
Kd [2]: 2.27 nM
T 1/2 [2]: 0.607 h
koff [2]: 0.000317 s⁻¹
kon [2]: 140000 M⁻¹ s⁻¹
Kd [3]: 0.184 nM
T 1/2 [3]: 2.72 h
koff [3]: 7.09e-05 s⁻¹
kon [3]: 386000 M⁻¹ s⁻¹
FACS Cell Binding (Fold Above Background) [4]: 38 fold
B2: H1H6975N (antibody, human IgG1, V domains shown)
VH: EVHLVESGGGLVQPGGSLRLSCAASGFTFSSYEMNWVRQTPGKGLEWISHISSRSVIIYYADSVKGRFTISRDNAKNSLFLQMNSLRAEDTAVYFCAGITIFGIPEYWGQGTLVTVSS
VL: EIVLTQSPATLSLSPGERATLSCRASQSVSSYFAWYQQKPGQAPRLLIYDASSRATGIPTRFSGSGSGTDFTLTISSLEPEDFAVYYCQQRSSWPITFGQGTRLEIK
notes: also called H2M6975N

B3: H1H6958N2 (antibody, human IgG1, V domains shown)
VH: QVQLVESGGGVVQPGRSLRLSCGASGFTFRNYGMQWVRQGPGKGLEWVTLISFDGNDKYYADSVKGRFTISRDNSKNTLFLQMNSLRTEDTAVYYCARGGDFDYWGQGTLVTVSS
VL: DIQMTQSPSSLSASVGDRVTITCRASQDIRKDLGWYQQKPGKAPKRLIYAASSLHSGVPSRFSGSGSGTEFTLTISSLQPEDFATYYCLQHNSYPMYTFGQGTKLEIK
notes: also called H2M6958N2
% Total Binding relative to Control I [1]: 162%
Kd [2]: 4.08 nM
T 1/2 [2]: 0.143 h
koff [2]: 0.00134 s⁻¹
kon [2]: 328000 M⁻¹ s⁻¹
Kd [3]: 0.167 nM
T 1/2 [3]: 1.39 h
koff [3]: 0.000139 s⁻¹
kon [3]: 829000 M⁻¹ s⁻¹
FACS Cell Binding (Fold Above Background) [4]: 35 fold

% Total Binding relative to Control I [1]: 178%
Kd [2]: 4.59 nM
T 1/2 [2]: 0.183 h
koff [2]: 0.00107 s⁻¹
kon [2]: 233000 M⁻¹ s⁻¹
Kd [3]: 0.347 nM
T 1/2 [3]: 1.35 h
koff [3]: 0.000142 s⁻¹
kon [3]: 410000 M⁻¹ s⁻¹
FACS Cell Binding (Fold Above Background) [4]: 2 fold
B4: H1H6793P (antibody, human IgG1, V domains shown)
VH: EVQLVESGGGLVQPGGSLRLSCAASGFSFSIYAMSWFRQAPGKGLEWVSAINGRGDGTHYADSVKGRFTISRDNSKTTLYLQMSSLRAEDTAVYYCAKPVMSTNGFDIWGQGTMVTVSS
VL: DIQMTQSPSTLSASVGDRVTITCRASQSISSWLAWYQLKPGKAPKLLIYKASNLESGVPSRFSGSGSGTEFTLTISSLQPDDFATYYCQQYNIYWTFGQGTKVEIK
notes: human IgG1 Fc (H1H)

% Total Binding relative to Control I [1]: 206%
Kd [2]: 7.28 nM
T 1/2 [2]: 0.3 h
koff [2]: 0.000636 s⁻¹
kon [2]: 87300 M⁻¹ s⁻¹
Kd [3]: 0.461 nM
T 1/2 [3]: 3.1 h
koff [3]: 6.2e-05 s⁻¹
kon [3]: 134000 M⁻¹ s⁻¹
FACS Cell Binding (Fold Above Background) [4]: 39 fold
B5: H1H6803P (antibody, human IgG1, V domains shown)
VH: EVQLVESGGGVVRPGGSLRLSCAASGFKFDDYGMTWVRHVPGKGLEWVSGINWNGGRTGYTDSVKGRFTISRDNAKNSLYLQMNSLRAEDTALYHCAGARRDAFDIWGQGTMVTVSS
VL: DIQMTQSPSSLSASIGDRVTITCRASQNIIKYLNWYQQNAGKAPKLLIYTASSLQSGVPSRFSGSGSGTDFTLTISSLQPEDFATYYCQQSSSSPYTFGQGTKLEIK
notes: human IgG1 Fc (H1H)

B6: H1H6782P (antibody, human IgG1, V domains shown)
VH: EVQLVESGGGLVQPGRSLRLSCAASGFTFDDYAMHWVRQAPGKGLEWVSGIIWNSGHIGYGDSVKGRFTISRDNAKKSLYLQMNSLRAEDTALYYCARDSGRYQSYFDYWGQGTLVTVSS
VL: DIQMTQSPSTLSASVGDRVTITCRASHIISSWLAWYQQKPGKAPKVLIFKASSLESGVPSRFSGSGSGTEFTLTISSLQPDDFATYYCQQYNTYSRTFGQGTKVEIK
notes: human IgG1 Fc (H1H)
% Total Binding relative to Control I [1]: 210%
Kd [2]: 1.99 nM
T 1/2 [2]: 0.25 h
koff [2]: 0.000767 s⁻¹
kon [2]: 385000 M⁻¹ s⁻¹
Kd [3]: 0.217 nM
T 1/2 [3]: 1.48 h
koff [3]: 0.00013 s⁻¹
kon [3]: 598000 M⁻¹ s⁻¹
FACS Cell Binding (Fold Above Background) [4]: 41 fold

% Total Binding relative to Control I [1]: 180%
Kd [2]: 5.24 nM
T 1/2 [2]: 0.0617 h
koff [2]: 0.00316 s⁻¹
kon [2]: 603000 M⁻¹ s⁻¹
Kd [3]: 0.102 nM
T 1/2 [3]: 1.38 h
koff [3]: 0.00014 s⁻¹
kon [3]: 1.37e+06 M⁻¹ s⁻¹
FACS Cell Binding (Fold Above Background) [4]: 8 fold
B7: H1H6976N (antibody, human IgG1, V domains shown)
VH: EVQLLESGGGFVQPGGSLRLSCAASGFTFSSYAMSWVRQAPGKGLEWVSIISSNGRYTYYADSVKGRFTISRDNSKNTLYLQMNSLRAEDTAVYYCATVTGDWFDPWGQGTLVTVSS
VL: DIQLTQSPSFLSASVGDRVTITCWASQDIDISLAWYQQKPGKAPKLLIYAASTLQSGVPSKFSGSGSGTDFTLTISSLQPEDFSTYYCQQLNSYPITFGQGTRLDIK
notes: also called H2M6976N

B8: H1H6765P (antibody, human IgG1, V domains shown)
VH: EVQLVESGGGVVRPGGSLRLSCVGSGFSFDDHGMNWVRQGPGKGLEWVSGFNWNGGSTNYAESVKGRFTISRDNARNSLFLQMNSLRAEDTALYYCVRGRSGWFNDAFDVWGPGTMVTVSS
VL: EIVLTQSPGTLSLSPGERATLSCRASQTINSNYLAWYRQKPGQTPRLLIYGTSSRATGIPDRFSGSGSGTDFSLTISRLEPEDFAVFYCQQYAGLPTFGPGTKVDIK
notes: human IgG1 Fc (H1H)
% Total Binding relative to Control I [1]: 191%
Kd [2]: 0.0504 nM
T 1/2 [2]: 3.58 h
koff [2]: 5.37e-05 s⁻¹
kon [2]: 1.06e+06 M⁻¹ s⁻¹
Kd [3]: 0.128 nM
T 1/2 [3]: 1.87 h
koff [3]: 0.000103 s⁻¹
kon [3]: 801000 M⁻¹ s⁻¹
FACS Cell Binding (Fold Above Background) [4]: 38 fold

% Total Binding relative to Control I [1]: 177%
Kd [2]: 0.823 nM
T 1/2 [2]: 0.35 h
koff [2]: 0.000558 s⁻¹
kon [2]: 679000 M⁻¹ s⁻¹
Kd [3]: 0.128 nM
T 1/2 [3]: 1.87 h
koff [3]: 0.000103 s⁻¹
kon [3]: 801000 M⁻¹ s⁻¹
FACS Cell Binding (Fold Above Background) [4]: 36 fold
B9: H1H6762P (antibody, human IgG1, V domains shown)
VH: QVQLVESGGGVVQPGRSLRLSCAASGFTFSHYGMVWVRQPPGKGLEWVALISFDGTTKYYADSVKGRFTISRDNSKNTLYLQMNSLRAEDTAVYFCVGAIAAAAFDLWGRGTLVTVSS
VL: EIVMTQSPATLSVSPGERATLSCRASQSVSSDLAWYQQKPGQAPRLLIYSASARATGIPARFTGSGSGTDFTLTISSLQSEDFAVYYCQQYNNWPMYTFGQGTKLEIK
notes: human IgG1 Fc (H1H)

% Total Binding relative to Control I [1]: 187%
Kd [2]: 2.48 nM
T 1/2 [2]: 0.183 h
koff [2]: 0.00109 s⁻¹
kon [2]: 439000 M⁻¹ s⁻¹
Kd [3]: 0.229 nM
T 1/2 [3]: 1.32 h
koff [3]: 0.000147 s⁻¹
kon [3]: 644000 M⁻¹ s⁻¹
FACS Cell Binding (Fold Above Background) [4]: 35 fold
B10: H1H6800P (antibody, human IgG1, V domains shown)
VH: EVQLVESGGGLVQPGRSLRLSCAASGFTFDGYAMHWVRQGPGKGLEWVSGISWYSDTLGYADSVKGRFTISRDNAKNSLYLQMNSLRTEDTAFYYCAKISSSGWAFDYWGQGTLVTVSS
VL: EIVLTQSPGTLSLSPGERATLSCRASHSVSSAYLAWYQQKPGQTPRLLIYGTSSRATGIPDRFSGSGSGTDFTLTISRLEPEDFAVYYCQQYGSSPLFTFGPGTKVDIK
notes: human IgG1 Fc (H1H)
